Two molecules from US6100378A, “Enhancement of the pro-fertility action of a molecule involved in a sperm-egg binding” (BioPore, Inc., priority 1999, dated 2000) can be followed below.

Data set [1] relates to frozen-thawed rooster sperm bound to an egg-membrane substrate. The data set is described as follows: BioPore Sperm-Binding Assay: percentage of sperm binding to an egg-membrane substrate. Type of data set: cell-based. The settings on record: 10 minutes at 37° C. exposure, 2 million sperm/well. Here is the method: All three peptides were incubated at 0, 20 and 80 ng peptide/million sperm prior to evaluation. Ration % bound calculated as: % bound with Peptide / % bound for Control; and
We used the BioPore® Sperm-Binding Assay (Amann et al., 1999) to compare. percentage of sperm binding to an egg-membrane substrate (similar to Barbato et al., 1998) after brief in vitro exposure to three concentrations of a prior art peptide (Hammerstedt et al., 1997), representing each of two lots of peptide SEQ ID NO: 4 (after disulfide linking the cystine residues) or three concentrations of SEQ ID NO: 1 (after disulfide linking the cystine residues). Briefly, cryopreserved rooster semen (Gill et al., 1996) from broiler males (Barbato et al., 1998) was thawed, deglycerolated (Gill et al., 1996), and adjusted to provide a concentrated suspension of sperm in an appropriate salts buffer. We used one containing: 0.600 g sodium glutamate, 0.210 g potassium glutamate, 0.100 g glucose, 0.070 g sorbitol, 0.035 g magnesium sulfate, 0.210 g potassium acetate, 0.050 g potassium citrate, 0.700 g di-potassiumphosphate, 0.160 g mono-potassium phosphate, 0.800 g di-sodium phosphate, 0.100 9 potassium hydroxide, 0.300 g N,N -bis[2-hydroxyethyl]-2-aminoethanesulfonic acid, 0.400 g N-[2-hydroxyethyl]piperazine-N'-[2-ethanesulfonic acid], and 0.400 g N-tris[hydroxymethyl]methyl-2-aminoethanesulfonic acid, dissolved in distilled water to make 100 ml (Tajima et al., 1989). Aliquots of this suspension were placed in tubes containing one of the three peptide sequences at 0, 20 or 80 ng per million sperm. After mixing and 10 minutes incubation at 37° C., the suspensions were further diluted and assayed using 2 million sperm/well in the microwell assay plates. Plates were incubated at 32° C. for 60 min, after which unbound sperm were decanted, the wells washed, and the DNA in sperm bound to the egg-membranesubstrate in the microwell plates quantified (Barbato et al., 1998). […] With SEQ ID NO: 1, however, binding for suspensions exposed to either 20 or 80 ng/million sperm was greater, namely 1.20 and 1.22 the control value.

In data set [2] the test system is White Leghorn hens inseminated with frozen-thawed rooster sperm. The data set is described as follows: Fertility trial: artificial insemination of hens with frozen-thawed rooster sperm exposed to peptide. Format: in vivo, chicken. An excerpt:
Each bar based on >425 eggs.
To compare fertility achieved after exposure of rooster sperm to SEQ ID NO: 4 and SEQ ID NO: 1, we used cryopreserved semen as in Example 1. To facilitate detection of benefit from peptides, we used a limited number of sperm for each artificial insemination. Pooled, deglycerolated semen (1 billion sperm/ml; at 0-4C.), in salts buffer as described in Example 1, was dispensed into tubes containing SEQ ID NO: 4 or SEQ ID NO: 1 to make nine suspensions: 0.0 (control), 0.2, 0.5, 1.0 or 2.0 μM and mixed. Artificial insemination of White Leghorn hens (40/group) was within 1 hour, and used 50 μl (50 million sperm). Eggs were collected daily, stored ≤7 d at 14C., incubated, and candled on day 7 (eggs with viable embryo were classed as fertile). Data resulting from four inseminations at 4-day intervals are shown (FIG. 2). It was concluded that both 0.2 and 0.5 μM SEQ ID NO: 4 improved fertility as did 0.2, 0.5, 1.0 and 2.0 μM SEQ ID NO: 1. […] The increase in fertility (above the control value) with the best concentration of SEQ ID NO: 1 (15.4 units at 2.0 μM) was 2.0× that with SEQ ID NO: 4 (7.8 units at 0.5 μM). Clearly, brief in vitro exposure of sperm to SEQ ID NO: 1 rather than SEQ ID NO: 4 before artificial insemination gave a greater increase in percentage of fertilized eggs over a greater range in concentration.

The mark [3] stands for this setting: 20 ng peptide/million sperm, SEQ ID NO: 4 as 2 preparations (lots).

Several values for one entry are separate records, joined by “and”; a condition that tells them apart may be missing. Equal values may be shown once. Bridge positions count the residues as written; N and C are the ends. Ends that are not written are not given here.

Regarding “CQSLQEYLAEQNQRQLESNKIPEVDLARVVAPFMSNIPLLLYPQDRPRSQPQPKANEDVC (disulfide 1-60) [SEQ ID NO: 4, reference compound]”, in data set [1] (setting [3]), the “binding relative to the value for the non-peptide control (ratio % bound with peptide / % bound for control)” value is 1.13 × and 1.17 ×.

B1: Cys-Gln-Ser-Leu-Gln-Glu-Tyr-Leu-Ala-Glu-Gln-Asn-Gln-Arg-Gln-Leu-Glu-Ser-Asn-Lys-Ile-Pro-Glu-Val-Asp-Leu-Ala-Agr-Val-Val-Ala-Pro-Phe-Met-Ser-Asn-Ile-Pro-Leu-Leu-Leu-Tyr-Pro-Gln-Asp-Arg-Pro-Arg-Ser-Gln- … (peptide)
chain: CQSLQEYLAEQNQRQLESNKIPEVDLAAVVAPFMSNIPLLLYPQDRPRSQPQPKANEDVCVNHHHHHH
Take B1: in data set [2] (2.0 μM peptide, percentage of fertilized eggs, 50 million sperm, four inseminations at 4-day intervals), the “increase in fertility (above the control value) with the best concentration” value turned out to be 15.4 units. Besides, the “increase in fertility with best concentration relative to that with SEQ ID NO: 4” value in data set [2] (SEQ ID NO: 1 at 2.0 μM vs SEQ ID NO: 4 at 0.5 μM) was determined as 2.0 ×. Moreover, in data set [2] (tested 0.2, 0.5, 1.0, 2.0 μM), the “fold range of concentrations of benefit to fertility” value is listed as at least 10 fold. Besides, the “binding relative to the value for the non-peptide control (ratio % bound with peptide / % bound for control)” value stood at 1.20 × in data set [1] (setting [3]) and 1.22 in data set [1] (80 ng peptide/million sperm).
